For this assay, the target named is HIV-1 NL4-3 Env on infected cells (HIV-1 group M subtype B, NL4-3 (pNL4-3 …, strain)).

The text below walks through data of publication PMC8196545 (Cell reports, 2021).

B1: c5392 (antibody, V domains shown)
VH: ELQLKESGPGLVKPSETLSLTCAVSGGPMCADWCFYYHWNWVRLSAEKGLEWMGRIHISGTAEYNPSFKGRATISLDISKNELSLTMTSLAAADTAVYFCARSGGNFHPTYFYMMDIWGRGTTVVVSS
VL: DIQMTQSPSTLYASLGETVTITCRASQNIKKWLAWYQMRPGRAPRLLIYMATYRHDADSARYIGSESGGEFTLTIKSLRPDDFGTFYCQQYGAQPWTFGQGTRLEVK
For the molecule B1, the binding result was “binds”.

B2: c1141 (antibody, V domains shown)
VH: QVRLHQWGEGLLRPSDTLSLTCSLSGNVFYETFFNWIRQSPGKGLEWIAEVSFAGDWNYNPSLKSRVTTYVDGFKYHASLHMRSMTAADAGVYYCAAGGGSFDVHSWGQGIRVTVSS
VL: EIVLTQTPLSSSVTLGQAASISCTSNHSLQHSNGNTYLSWFQQRPDQPPRLLIRKISNRGSGVPDRFSGSGSGTHFTLTIDRVEPEDVGTYYCVQATQFPWTFGQGTTVDIT
For the molecule B2, the binding result is “binds”.

B3: c1134 (antibody, V domains shown)
VH: QVRLHQWGEGLLRPSDTLSLTCSLSGNVFYETFFNWIRQSPGKGLEWIAEVSFAGDWNYNPSLKSRVTTYVDGFKYHASLQMSSMTAADAGVYYCAAGGGSFDVHSWGQGIRVTVSS
VL: EIVLTQAPLSSSVTLGQAASISCTSNHSLQHSNGNTYLSWFQQRPGQPPRLLIRKISNRGSGVPDRFSGSGSGTHFTLTIDRVEPEDVGTYYCVQATQFPWTFGQGTTVDIT
On to B3, for which the binding result is listed as “binds”.

B4: c1174 (antibody, V domains shown)
VH: QVRLHQWGEGLLRPSDTLSLTCSLSGNVFYRTFFNWIRQSPGKGLEWIAEVSFTGDWTYNPSLKSRVTTYVDGFKYHVSLQMSSMTAADAGVYYCASGGGSFDVDSWGQGIRVTVSS
VL: EIVLTQTPLSSSVTLGQSASISCRSSQSLQHSNGNTYLSWFQQRPGQPPRLLIRKISNRFSEVPDRFSGSGSGTDFTLTIDRVEPEDVGTYYCVQATQFPWTFGQGTTVDIT
As for B4, the binding result is reported as “binds”.

B5: c5237 (antibody, V domains shown)
VH: QVQLQESAPRLVKTSETLSLTCTVSGSHFYPYFYSWIRQSPGGKLQWIGRMYSTTGSMRTNPSLHTRVGMPLDHSRSQIGLTMSSMTAADTGIYYCVRDIMREFDSVDGSGGIYGGVDVWGRGTTVTVSS
VL: QFVLTQPPSVSGSPGKTVIISCTRSGGTFARNSVRWYLQRPGEIPTTVFFDGNRRASGIPDRFSASIGVSSTSASLTISGLTPEDEADYYCESSDGGHHVVFGGGTKVTVL
B5: the binding result is “binds”.

B6: c24251 (antibody, V domains shown)
VH: QVQLQESGPGLVKPSETLSLTCTVSGASINSYYWSWIRQTPGKGLEWIGFISNAGTTKYNPSLQSRVTISRDTSKNQVSLHLTSVTAADTAVYHCARDGLPGSNWGYNYAGMDVWGQGTTVTVTS
VL: DIQMTQSPSTLSASVGDRVTITCRTSQPISVWLAWYQQKPGKAPKVLIYRASSLEDGVPSRFSGSGSGTEFTLTISSLQPDDFATYFCQHYNTFSRTFGQGTKVEIK
Turning to B6, the binding result is reported as “binds”.

B7: c8395 (antibody, V domains shown)
VH: AVQFLQSGAEVKKPGESLKISCQDRGYGFNDYWIAWVRQMPGKGLEWMGLIYPDDSDTRYSPSFQGQVTILADKSINTAYLQWNSLKASDSAIYYCARLMVVDERSENTFDIWGQGTVVTVFS
VL: SSGLAQSPSLSVSPGQTATVTCSGDPLVNHFASWYQQQPGQSPILVIYQDNQRPSGIPERFSGSKTGNTATLTIGETQAADEADYFCQSWDITTAGMIFGGGTKLTVL
Take B7: the binding result was “binds”.

B8: c5275 (antibody, V domains shown)
VH: QGQLVESGGGVVQPGTSLRLSCKASGFSFSNHVMHWVRQAPGKGLEWVAAIWDDGSNQYYRDSVKGRFTISRDNSKNTLFLQMSSLTVQDTAIYFCARRMSAVGTIFAYFNYGMDVWGRGTTVIVSS
VL: EVVLTQSPGTLSLSPGERGTLSCRASQHLSDSSLAWYQQKPGQAPRLLIYAASRRATGIPDRFSGSGSGTDFTLTISRLDPDDFAVYYCQHYGNSPVITFGQGTRLDIK
For B8, the binding result is recorded as “binds”.

B9: c9488 (antibody, V domains shown)
VH: QVQLVQSGSEVKKPGASVKVSCKASDYTFPNFGISWLRQAPGQGLEWMGWIRGSDGETNYAQKFKDRVTLTTERSRGTAYMELRSLISDDTAVYYCARDLKWDCSKRGCPDYQWFDIWGQGTLVTVSS
VL: DVVMTQSPLSLPVTLGQPASISCISSHSLVYTDGNTYLAWFQQRPGQSPRRLIYTVSKRDSGVPDRFSGSGSGTDFTLKISRVEAEDVGIYFCMQGRHWPYTFGQGTTLEIK
In the case of B9, the binding result was “binds”.

B10: c24148 (antibody, V domains shown)
VH: QVEVQESGPGLVKPSETLSLTCSVSGGSITGYYWSWIRQAPGKGLEWIGFISPGGSARYNPSLKSRVTISKDASTNQVSLRLISVTASDTAVYFCVRDGAAGNNWGYNYYGMDVWGQGTTVTVSS
VL: DIQLTQSPSTLSASIGDRVTITCRASQSISVWLAWYQQKPGKAPNLLIYRASTLDSGVPSRFSGSGSGTEFTLTISSLQPDDLGTYYCQHYDTPSRTFGPGTKVEIT
As to B10, the binding result is given as “binds”.

B11: c2518 (antibody, V domains shown)
VH: QVRLHQWGEGLLRPSDTLTLSCSLSGNVFYNTFFNWVRQSPGRGLEWIAEVSFAGEWTFNPSLRSRVTTQVDGFTYRVSLFLKSMTAADAGVYYCASGGGSFDVDSWGPGIRVTVSS
VL: EIVLTQTPLSSPVSLGQSASISCRSSQSLRHNNGNTYLSWFQQRPGQPPRLLIRKISDRFSGVPNRFSGSGAGTDFTLRIDRVEPEDVGTYYCLQATQFPWTFGQGTTVDIK
Regarding B11, the binding result is reported as “binds”.

B12: c11058 (antibody, V domains shown)
V domain 1: EVRLDQSGTEMRKPGTRVRLSCKVSGHTTSDFFVHWVQQTPQGGPQWMGLINVEDENVIYADIFQGRISIVADTSKKTVFLDLTDLTFEETALYFCTTHTLQKDTGDYVAAFDSWGRGTLLYVSS
V domain 2: QPVLTQPPSVSAVPGQKVIISCSGRTSNIGTNFVSWYQQFPGAAPKLLIYDDFNRPSGISDRFSASKSDTSATLAITALQPGDEAEYYCGAWDSGLNPAVFVFGSGTRVFVL
As to B12, the binding result was “binds”.

B13: c10833 (antibody, V domains shown)
V domain 1: EVRLDQSGAEMRKPGTSVRLSCTVSGHTTNDFFIHWVKQDPQRGPLWMGLINVEDENVIYAEEFQGRISIVADSSKTTVFLDLSHLTFEDTALYLCTTHTLEKETGDYVAAFDSWGQGTFLSVSS
V domain 2: QSVLTQPPSVSAVPGQKVIISCSGRTSNIGTNFVSWYQQFPGAAPKLLIYDTFHRPSGISDRFSASKSDTSATLAITALQPGDEAEYYCGSWDSGLNPAVFVFGSGTRVFVL
B13: the binding result was “binds”.

B14: c9497 (antibody, V domains shown)
VH: QVQLVQSGAEVKKPGSSVKVSCKASGGSFSDYGISWVRQAPGQGLEWMGGIIPGLETTKFAQGLQGRLTMTADESSTTAYMVLTRLRSQDTAVYYCATTGQQNDYYSSGTSYKLNYYFGMDVWGQGTTVTVSS
VL: QSVLTQPPSSSGTPGQRVTITCSGGSSNIETNSVNWYQQLPGAAPKTVISATHQRPSGVPDRFSASKSGASASLAISGLQSEDEADYYCAVWDDSLHAWVFGGGTKVTVL
For B14, the binding result is listed as “binds”.

B15: c7488 (antibody, V domains shown)
VH: QVRLEQWGGGLLKPSETLSLTCAAWDDNFHRYHWTWVRQFPGGRLQWIGQCEPFGAIKSNPSLGGRAGLSLDDSLRRFILTLRSLNVADTGVYFCVRGPERFHQPHFYYQGLGLWGPGSPVIVSS
VL: DVELTQSPLSLSVNPGESVSLFCRSTESLRNANGHDYLDWYVQKPGQSPQILIFLGSGRASGLPDRITASGSGSAFTLRIDKVEADDVGVYYCMQSIQLPRTFGQGTRLEIK
In the case of B15, the binding result is reported as “binds”.

B16: c29323 (antibody, V domains shown)
VH: QVQLQESGPGLVRPSETLSLTCVVSGDSITRNYWSWLRQPPGKTLEWIGFMYDSGTVNYNPSLQSRVSISVDTSNNQFFLRLTSVTAADTAVYYCARHPSRGSDYDSATGDTYYYYYGMDVWGPGTSVVVSS
VL: DIQLTQSPPSLSASVGDRIVISCRATRDIGTSLNWYQQKPGQSPKLLIVAASTLESGVPSRFSAAGSATHFTLTISALQHDDVATYFCQQYLSLPLTFSGGTRVDLR
Turning to B16, the binding result is “binds”.

B17: c10919 (antibody, V domains shown)
VH: EVKLVESGGTQVQPGGSLRISCVGSGFRFSSYSFNWVRQAPGKGPEWLAYISASPFGRSKVTYAQSVEGRFTVSRDNDANSLYLQMTGLTRDDTAVYYCARAPYYEGNFHYNYAMDVWGLGTPVIVSS
VL: GVVLTQSPGTLSVSPGERATISCRASQSLSRDSLVWYQQKPGQPPRLLIYGTSNRVPGIPDRFSGGGSGTQFTLTISRLEPEDFAVYYCQNYGLSPLFSFGQGTKLEIK
For B17, the binding result is “binds”.

B18: c11465 (antibody, V domains shown)
VH: EVKLVESGGTQVQPGGSLRISCVGSGFRFSSYSFNWVRQAPGKGPEWVAYISASPFGRSKVTYAHSVEGRFIVSRDNDANSLYLQMTGLTRDDTAVYHCARAPYYEGNFQYNYAMDVWGLGTTVIVSS
VL: GVVLTQSPGTLSLSPGERATVSCRASQSLTRDSLVWYQQKPGQPPRLLIYGTSNRVPGIPDRFSGGGSGTQFTLTISRLEPEDFAVYYCQSYGLSPLYSFGQGTKLDIK
For the molecule B18, the binding result is reported as “binds”.

B19: c9674 (antibody, V domains shown)
VH: EVKLVESGGTLVKPGGSLRISCAASGFRFSSYSFNWVRQAPGKGPEWVAYISASPLGRSKVNYAHSVEGRFSVSRDNDAKSLHLQMSGLTRDDTAVYHCARAPWYEGNFNYNYAMDVWGQGTTVIVSS
VL: GVVLTQSPGTLSLSPGERVTVSCRASQSLSRDSLVWYQQKPGQPPRLLIYGASNRVPGIPDRFSGDGSGTQFTLTINRLEPEDFGVYYCQSYGHSPLYSFGQGTKLEIK
Turning to B19, the binding result is on record as “binds”.

B20: c13217 (antibody, V domains shown)
VH: QVQLVESGGGVVQPGKSLRLSCTASGFDVGHFTMHWVRQAPGKGLEWVGLTRTDGNTEEYADSVKGRFAISRDNSKNTLSLQLNNVRAEDTAVYYCAKERVPLTAYAFDYWGQGTLVTVSS
VL: DIQMTQSPSSLSASVGDRVTITCRSSERIRTYVNWYQQKPGQAPQLLIYAASTLQNGVPSRFSGSGSGTVFTLTVNSLQPADFATYSCQQSYSLPWTFGQGTRVEVN
For the molecule B20, the binding result is “binds”.

B21: c11422 (antibody, V domains shown)
VH: EARLVESGGGRVQPGGSLRLSCEASGFRFSSYSFNWVRQSPGKGLEWLAKISASPFGRSQINYAHSVEGRFIISRDNDGNSLRLQMNDLRGADTGVYYCARAPWQERNLDYNYAMDVWGQGTTVIVSS
VL: ELVLTQSPGTLSLSPGERATVSCRASQSLRRDSLAWYQQKPGHSPRLLIFAASNRVPGIPYRFSGSGSGTQFTLTIDKMEPEDFAVYYCQTYGSSPLYTFGQGTKLDIN
In the case of B21, the binding result was “binds”.
